Assay results as given in the supplement of paper PMC9170038.

Tested on: K4 kissing-loop RNA reporter
Experiment: apparent KD of K4 kissing-loop reporter; higher = weaker reporter binding
Details: Eterna round: R107
Experimental: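 RNA-MaP round R107: designed RNA switches with theophylline, tryptophan, arginine or FMN aptamers are transcribed on-chip within common flanks. They are titrated with a labelled K4 kissing-loop RNA reporter in RNA-MaP buffer (100 mM Tris pH 7.5, 80 mM KCl, 4 mM MgCl2), without ligand or with the indicated ligand. Median apparent KD per design.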

[1] = input ligand: theophylline 20 uM
[2] = input ligand: tryptophan 2.4 mM
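Note: bound reporter read as fluorescence of individual clusters on recovered sequencing chips by microscopy, with normalized cluster intensities fitted with a binding model.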

Sequence	apparent KD of K4 kissing-loop reporter (input ligand: FMN 200 uM) [nM]	apparent KD of K4 kissing-loop reporter (input ligand: arginine 13.2 mM) [nM]	apparent KD of K4 kissing-loop reporter (input ligand: none) [nM]	apparent KD of K4 kissing-loop reporter [1] [nM]	apparent KD of K4 kissing-loop reporter [2] [nM]
AAGGGCUAGGCGGCCGCCACUGGUCGUGUACACAUACGAACCAGUGAUGUUGGUAUUGUAUGCGGCAGGACCGGGCCUAGCCGAA [Exclusion - Tryptophan B (Freestyle 26)]	415	447	448	614	405
ACGAAGGAUGGAAGGAGCGCUCGUCAGUCCUGCGAGUGAUGUUCGUGGGUAAAUAUUCGCGAGCAGGUAGGUCGCCAUCUUGAGC [Soregeor]	144	115	144	134	129
UGGAGUUGACGAAAAGUCAACUCCUGAGAUACCAGUGACGAAAGUCACCCUUGGCAGCUCACUGCCAGUGAUGUUGGAAAUAAAA [#01 K4 Theophylline A Same State]	346	182	224	337	217
CGCAAGCAGCCAGUGAUGUUGGCCGCCUUGCGAGGACCGGUACGGCCGCCACUCGAAGGCGGCUACUGGUAAUCCGUCUAACGGA [Lareus]	84.6	80.9	86.8	68.4	89.9
GCGCGGGAGUGAUGUUCCAAGUGGUGUUAACGAGGACCGGUACGGCCGCCACUCGUUACGGCCGGGCCGUAGGAUACACUGGCGC [Same State - Tryptophan A (Freestyle 16)]	168	242	274	471	415
CAUAGUCACUGUGAUACCAGCCCGACUCUUGGCGUCUGCGGUCAAAGCCCAGUGAUGUUGGGCCCUUGGCAGCAUGGCGGCAACA [Xelexebi]	136	114	132	112	120
UUACUGAGUGAUGUUUGGAAAUAUCCUAGGCAGGAUAUGCGGAAACGCAGAAGGGCCACCUUCUAGUGAAGGAAACUUCGCUAUU [Ex FMN A 4]	536	284	423	397	379
UGGAGUUGACGAAAAGUCAACUCCUGAGAAGGAGCGGACGAAAGUCCAGGUAGGUCGCUCACUAGCAGUGAUGUUGCUACAUAAA [#OpenEnded 2]	202	211	219	253	208
UCUAACGUUGAGGCGGCAGCGGGCCCAUCUAAGGAUAUCGGUUUACCGAGAAGGUAGUUGGACGAGAGUGAUGUUCUAUUGAGAG [theeternabot_sameState_KL_FMN_A_18]	207	211	254	642	159
UGACAUUGCUCAGAUACCAGACUUGAGGAACACCCAAGUGCCAAACGUACAAUAAUAAAAGUCCCUUGGCAGCUGAGCAAUGUCU [TheoBX 14]	111	53.6	82.1	62.8	59.8
UUUUUCGCGUUUGAUACCAGCAGAGUUGUUCGUGUCUGGAGCGUGAGUGAUGUUCAUGUCUGCCCUUGGCAGCAAACGGGAGAAG [KL-XTheo-B14]	137	113	123	97.1	134
UAGGAGUGAUGUUCCUUUAGCAGGUAGGAAGGAGCGCCCAUUUGGGCAGGUAGGUCGCCUACUGGCCCUGAGUUAAACCUUAGGC [#11 K4 Arginine A Same State]	149	181	150	207	127
UGACAUUGCUCAGAUACCAGACAAGAGGAUCACCCUUGUGCCAAACGUACAAUAAUAAUUGUCCCUUGGCAGCUGAGCAAUGUCU [TheoBX 14]	73.2	25.4	16.3	80.7	51.6
UAAUUUAUGUCUUUAAUAUAAUAAUCAGAUACCAGUGAUUUAUGACACCCUUGGCAGCUGUAUAGAGUGAUGUUCUUAUGCUUAA [JR_ExcTheophyA_Sub011]	247	324	278	375	179
AGGGACGAUAGCGAUACCAGAGGUCGCAAAUUCGCGCCGUUUUUUAGGAAGUGAUGUUUUCUCCCUUGGCAGCGCCCUUAGAGUU [theeternabot_exclusion_KL_Theo_B_47]	881	435	945	795	688
AGCUCACACGGAAGGAGCGGAUAGAACUGACAGUUGGGCUCAAGUGAUGUUUGGGCUUGAAUCCAGGUAGGUCGCCGUGUGAGCU [Arg B SS t12]	136	96.3	109	123	123
UGUCGGUGAAGAAUGUUAGUGAUGUUGGCACGAGGACCGGUACGGCCGCCACUCGGUAAUCAUCGCAAUUAUCGAUGGCGUAGCC [theeternabot_exclusion_KL_Trp_A_3]	183	170	147	166	182
AGGCACGAGCAAGGAUAUUGAGUAGAGUGAUGUUCUGCCUGGGUUGGCUCGCAAGAGCCUUCUCAGCGAGAAGGUGCUCGUGCCU [#2 Same State - FMN A Attempt #25 (HarryS)]	286	471	674	614	594
GCCCGAAAGGGCCGAUGUGUUUGCGGCGAUCGAGGACCGGUACGGCCGCCACUCGUCGAGGCGUUCAGUGAUGUUGAAAGCAUUA	334	279	352	354	626
CGAGUGAUGUUCGUUCGUUUAUUUCUUUGACAGGAUAUGCGGAAACGCAGAAGGGUCACCUUUGAGUUAAAGGAAUUUACGUUAU [Ex FMN A 26]	572	509	599	539	483
CGAGUGAUGUUCGAAGAGUUGUUAAGCGAUACCAGCUAGGAGACUGGCCCUUGGCAGCGUAAUAAGUUAAUAAAUAAAUGAUCAC [whbob_Ex_Theo_A_th65]	293	384	360	506	285
